In the DeepSol protein solubility set:

Assay: soluble on expression in E. coli; label from the status in PepcDB or PDB records

MKWHGLPACDSNPNSTTEFCRTRRPTKTMNSPATQTATPTNVDIASIVEQVLRRLRDQTNTNGSTSKPATHAPSAHVLSDKVISVDVIRGIPSGVTQVQLSGGIVTPAARDEMRARGISLAGAESTSAAAIKPASNSGKRFIQLHTDTSSKSIRDALARQLALRGVDHCPRAHRSVIVTKHPATALLGRIQSGARAVLITRLEDIPRFASEIDADTFVLDMQRFNLVALVNAATSIAQLSTSSTSQEAT
soluble on expression in E. coli: not soluble

MYPDHMFKYVIIGDGGVGKSNLLLRFTDELFDPIHTTTLGVEFGYKDLQIDKYKVRLRVWDTCGQENFRSIIRAYYRNALGALLVYDITCRKSFVHLEQWLSDLRQHGHPEMVIMLIGNKSDLKAVRDVTTEEGEAFAKKNGLTFMETSAKANKHVEKAFVNTAHEIYKKLKLGVIEDDDVKKKKIGIILRSRSGKEKKCC
soluble on expression in E. coli: soluble

MQTWQLPEHIADVLPTNARQLESAREQLLALFRVHGYELVQPPLMEYAHSLLTHIDAGLSLKTILVTDRLSGRQLGIRADITPQVARIDAHLLSANQGINRLCYAGPVLHAQPDGLLNMREPLQAGAEMYGFADIRGDIELIDLMLKSMKIADMGKVLLSLGHIGIFRALSDAAHLDAGQSATLLALMQDKDTGAVEAQVKAWKLDGMWAKAFSLLPRLYGGREVLSDARGRLPDLSAVGGALGELQAVCDAFPDCEIHIDLSELRVDNYHTGLLYAAYAADFHDAVARGGRYDGLGGYFGRARPATGFSFDLRSFIGRLPAIERQPAVLVDAEDAEAAHEAVEALREQGQCVVIDYGIGHNVSEELAGRLKKTDGVWQVVKR
soluble on expression in E. coli: not soluble

MAHHHHHHMSSELVLAQESAWDKFGSKLKDMPFLNNFFENPILGKLFGETELAAALREMKMYDQNFKLSELMYLFEFVISKHIVESYLIGDEETLRVHCGQSAFNSLNASINERKKKKVYLDTNVLIYKNHELKGAQRMEESSPWFIFTFHTQQINCLKNANDEIIEGNIDDIREVVYTIALSKHPEPEREGLLYPYIVREFAIY
soluble on expression in E. coli: not soluble

MKLIAESGSTRTEWALVEDNHLVQRVFTEGLNPFFQTRREISRSVRLGLPESFFKKKLDQVYYYGAGCSSYEKKNILGASLVAQFKTPIQVESDLLAAARGLFKCEAGIACILGTGSNSCFYDGKIIVKNVKAAGYILGDEGSGAVLGKLFLADLLKGLAPKELANEFHEKFRISVNDVMESVYNLPFPNRFLGTIAYFLGDYMDNEYVYNLLTNNLRSFFNRNVCQYDYINYPIRFVGSLAYAYPDILQEVAQEFGVEIDVIEETPMNGLIEFHSMNIEESMAGDPLEHHHHHH
soluble on expression in E. coli: not soluble

MQNNDFRTGSGSLKGSSTGVLKQFLFENVFICRIGVIKSFDFETQKGVVTIKEYEGLEISTCSISNFNFDLTAEDEVILLQSNFNIFQESDNNHFDKNYFYILSVLNPKKIGIRLDQFELSVQELGAQSENIKFKAKKLIIDVDNIEIKGNLKINGTKFENHMHSSGTLTYVNSSGVPTTTTGKTGPIA
soluble on expression in E. coli: soluble

MLKKILLSLVVFYQRFISPLTPPTCRFYPTCSQYTREAIEYHGALKGLYLGVRRILKCHPLHKGGFDPVPLKKDKNSKTTHHHLEHHHHHH
soluble on expression in E. coli: not soluble

MLNIQNYSASPHPGIVAERPQTPSASEHVETAVVPSTTEHRGTDIISLSQAATKIHQAQQTLQSTPPISEENNDERTLARQQLTSSLNALAKSGVSLSAEQNENLRSAFSAPTSALFSASPMAQPRTTISDAEIWDMVSQNISAIGDSYLGVYENVVAVYTDFYQAFSDILSKMGGWLLPGKDGNTVKLDVTSLKNDLNSLVNKYNQINSNTVLFPAQSGSGVKVATEAEARQWLSELNLPNSCLKSYGSGYVVTVDLTPLQKMVQDIDGLGAPGKDSKLEMDNAKYQAWQSGFKAQEENMKTTLQTLTQKYSNANSLYDNLVKVLSSTISSSLETAKSFLQGLEHHHHHH
soluble on expression in E. coli: soluble

QLNPYLRLKVRRDHIIDDALVRLEMIAMENPADLKKQLYVEFEGEQGVDEGGVSKEFFQLVVEEIFNPDIGMFTYDESTKLFWFNPSSFETEGQFTLIGIVLGLAIYNNCILDVHFPMVVYRKLMGKKGTFRDLGDSHPVLYQSLKDLLEYEGNVEDDMMITFQISQTDLFGNPMMYDLKENGDKIPITNENRKEFVNLYSDYILNKSVEKQFKAFRRGFHMVTNESPLKYLFRPEEIELLICGSRNLDFQALEETTEYDGGYTRDSVLIREFWEIVHSFTDEQKRLFLQFTTGTDRAPVGGLGKLKMIIAKNGPDTERLPTSHTCFNVLLLPEYSSKEKLKERLLKAITYAKGFGML
soluble on expression in E. coli: soluble

MSLTNKMIYDQASGLRRLTQPSVTKVISVTGGKGGVGKSNVTLGMAICMAKQGKKVMVLDADLGLANVDVMLGIRPKRNLGHVLAGECELKDAIVEGPHGIRIIPATSGTQSMTELSHAQHVGLIRAFGTLEDEMDILLIDTAAGISDMVVSFSRAAQDVVVVVCDEPTSITDAYALIKLLSKEHQVQRFKIVANMVRSYREGRELFAKLTLVTERFLNVSLELVACIPLDDNVRQAVKRQKIVVDAYPRSPAALAISSLANKALTWPIPRTPSGHLEFFVERLLNRSEGHHHHHH
soluble on expression in E. coli: soluble

MEKPVICRIKEIIEESPTVKTFVVDKDFDFKPGQFAMLWLPGVDEKPFGFSSKNSFSVARVGEFTKKMHELKEGDIIGVRGPYGTYFEPIGDKVLAVAGGIGAAPIITAVEEFSKQGIEITTILGARTKEELLFLDRFEKVSRLEICTDDGSFGFKGFTTEKMKEVLKEEKFDLIITCGPEIMMKKVVEIANEYNIPVQVSMERYMKCGIGICGQCCVDDEGLCVCKDGPVFWGDKLKFIREFGKYKRDASGKKIYY
soluble on expression in E. coli: not soluble

MGSDKIHHHHHHMTDLEHQVFTQVRAIIANEEQVIGRRGILIPLKKAIIADGDIRNVIDIVSSDPALAAHLLWRSNSAANASVSSKNRSLKDALVRLGQVNIYRYAFTFYLKERLDELPQPYKKLVYGYWALTESIATDAVDSLHHMEGVNINPDEVQTLALFSVFGEIIALTAFAYLNAESEQSFPLSIIKSLIDNQKQTLTLEAFESLGLDEELREEFMIAHNLRQTRNPDSPGLVLRRVLSMRNQLLNPL
soluble on expression in E. coli: not soluble

GSFTMADLDDIKDGKDFRTDQPQKNIPFTLKGCGALDWGMQSRLSRIFNPKTGKTVMLAFDHGYFQGPTTGLERIDINIAPLFEHADVLMCTRGILRSVVPPATNRPVVLRASGANSILAELSNEAVALSMDDAVRLNSCAVAAQVYIGSEYEHQSIKNIIQLVDAGMKVGMPTMAVTGVGKDMVRDQRYFSLATRIAAEMGAQIIKTYYVEKGFERIVAGCPVPIVIAGGKKLPEREALEMCWQAIDQGASGVDMGRNIFQSDHPVAMMKAVQAVVHHNETADRAYELYLSEKQ
soluble on expression in E. coli: soluble

LLGLGVGPGDPELITLKALRLLRAAPVVGYFVAKGKKGNAFGIIEAHLDQAQVRLPLVYPVTTEKLEPPLCYETIISDFYDTAAEQLAAHLDAGRDVAVICEGDPFFYGSYMYLHDRLATRYESEVVPGVCSMLGGAAVLGAPLVYRNQSLSVLSGVLPEEELRRRLADADAAVVMKLGRNFDKVRRVLVELGLERRALYVERATMANQRIVPLERVEPMASPYFSLIVVPGDKWQGGAGGE
soluble on expression in E. coli: not soluble

MVGGSLSPAFTIDEATSYINAVKEAFGADQPAKYREFLDIMLDLRANRVDLATVVPRMRELLKDHVNLLLRFNAFLPAEAKETFHDVRSYIYSLKESFRDEPAKYAQFLEILNDYSARRVDAPSAVARMTELMKDHRNLVLGFSVLLSTGDTKTTPLEAEPDNNKRIRVANFISKLKARFQGNDGHVYESFLEILTMYQQGNKSVNDLYQEVVALLQGHEDLVMEFSNVFKRTTGPSGSKSARDR
soluble on expression in E. coli: soluble

QTMGGDDVKVVQYNQEKLVQTRMSVADNGWIYVMTHSGYDTGNSNVKIFRSKDQGATYQKLRDWDPSDDYQFQDFDIVVTGKNESDIKIWSVELMNKPGGYKSRVAVFSRDANAQNAKLVYKEDFSNVQLYDVDIASNYRSPSSLNNGGNPFALAFAYTGFNNTHKISFVDYVFSLNGGQNFNKNLLFSQDGEKKIDKVDLSLGSTSESMGHNAWPLMGVVFEMNKQGGKSDIGFLSNFVDNDPEFQWSGPIKVSESDMSFSPKIQMLLDEDNNTINGESCHNFMITYSDYDSEYSDWDIRYVYPKKSFKYEKGKTPTMDDLVEAFLTASYQSETNSGLGYDKNANHYLITYAKKEENGTNTLKYRWANYDKIHNKDLWSDTFTYTSSANALYTPQVDINPTKGLVCWSWVEYLPGKRIVWSDTQWTHANGVEDIVMQEGSMKLYPNPAQE
soluble on expression in E. coli: not soluble

MGSDKIHHHHHHMNIHYYLIINEQASSGNGRKVARKVIQQLKQQELKYTALYTDYAGHEKELTKELAETTLLPWSEDLDVSTFPILVVLGGDGTLHNVINSLLPYDSTIPLSYIPCGSGNDFARGVGLSRNIDKALHQILRTRRPKEIQTIHYVEANQEEIGLATNNVGLGLDAAIVEKTNESSSKKALNKFKLGSLSYISSIIHVFFRQKGFPILVEMNGKQYTFNRAFLCTVTNHPYFGGGVSIMPTANPRKAVVDLVVVERINIFKILWLIFLLLRQKQGKSKHFHHFQSSKIRIVSTIPQTIHADGEILGKRSIDMVYTTQKRLFWF
soluble on expression in E. coli: not soluble

MGSDKIHHHHHHMIKALNIVTKTGTELQGALFKAAHATTVLIAITGVHGNFYSNPFYVNIGKTLMAAGIDFIYAQTRDAFNQVVSLNHLTGKKELVGSWSEQFDDANEDIAAYLSYAEENQYQHIILGGHSLGANKVIYYLANHADVNVTKFLLLSPANLKRLTDMVSLSERNIIQKQIAAGNSNQLLPFELFGWLPCTAKTADQWLNSGILDNVHSDLRADFSQIERIRLSGAMVIGTLDTFTYGDPIKYLKTINAHFLSHAENDLVFIQKTGHTYQNKDQKLANEILKLIKNWSLGGN
soluble on expression in E. coli: not soluble

MGSDKIHHHHHHMPENLIIPSVDLRIGALEEYNRRQKEKAHHRQKGPKPRPCITLSREFGCEGYPVAESLLKLMPEQTGDQWVLVDKDVLDEVARRHHVSREILEALGTKNRILSQVLATFSERWKTDHEYFELLCSHIVSLAEQGNVIIVGLGGAIITHHREHCYDFRIFGSREFKIGSICQRMNLPPDKAADLIEKQQAQIDNFTREFLFEDEANPAIYDLLFNNDRMCPETMARTIADYVAGRIAAGTADKRHV
soluble on expression in E. coli: not soluble

MPRLTDDDKKLLLMLAREAIVTYVREGITPATELSVPSLCEHYGCFVCIKKGGELRGCIGNFTSSQPLYQLVREMAVSAATRDPRFYPMTSKDITDFSLEISVLSPLEKISSPEQITVGTHGIYIEKNFFRGVLLPQVATEYGWDRDTFLMQTCVKAGLKPDDWRDGADIYIFSAEVFSLEHHHHHH
soluble on expression in E. coli: not soluble

SGIIKMAIRFDRRAYPPQITPKMCLLEWCRREKLPQPVYETVQRTIDRMFCSVVTVAEQKYQSTLWDKSKKLAEQTAAIVCLRSQGLPEGRLGEESPSLNKRKREAPDQDPGGPR
soluble on expression in E. coli: soluble

MKTKTDFLKMKEQGEPITMLTAYDYPSAKLAEEAEVDMILVGDSLGMVVLGYDSTVPVTVEDMIHHTKAVRRGAKETFIVTDMPFMSYHVSLQDTMVNARRIVQESGAHALKVEGAGEVISTIHYLTNAGIPVVAHLGLTPQSVGVLGGYKVQGKDAESAKKLIEDAKKCEEAGAIALVLECVPMQLAELISEQLTIPTIGIGAGQKVDGQVLVYHDLISYGVNRVPKFVKQYTSVQEEIVRGISQYVAEVKTRQFPEEKHSFTMKEEECLALYGGKQS
soluble on expression in E. coli: not soluble

MSVEGLGKDFCGAIIPDNFFPIEKLRNYTQMGLIRDFAKGSAVIMPGEEITSMIFLVEGKIKLDIIFEDGSEKLLYYAGGNSLIGKLYPTGNNIYATAMEPTRTCWFSEKSLRTVFRTDEDMIFEIFKNYLTKVAYYARQVAEMNTYNPTIRILRLFYELCSSQGKRVGDTYEITMPLSQKSIGEITGVHHVTVSRVLACLKRENILDKKKNKIIVYNLGELKHLSEQTSYYSDPNSSSVDKLAAALDHH
soluble on expression in E. coli: soluble
